According to article PMC7919418 (Genes & Development, 2021):

Experiment: SEC-MALS molecular weight / oligomeric state
Assay type: physicochemical

For “dual-TQT/V Panx peptides: Panx peptide residues 455–480 with both Ctp binding sites (TLYKNAATQTERRTATRDAGTQVRLE)”, the “oligomeric state / stoichiometry” value was “two Ctp homodimers with two dual-TQT/V Panx peptides”.
